Consider 1 substance from publication PMC5960627.

Like-named read-outs stand apart in the source and are kept apart here.

Test in all cases: other fluorescence titration
Experiment [1] addresses BSAT1R_(309-327), FRET biosensor with AT1R a.a. 309-327 (SMD4JM) between EYFPc and ECFP (human).
For experiment [2], the target named is BSAT1R_(125-141mut), FRET biosensor with mutant AT1R a.a. 125-141 (SMD2) between EYFPc and ECFP (human).
Experiment [3] concerns the target BSAT1R_(215-242), FRET biosensor with AT1R a.a. 215-242 (entire SMD3) between EYFPc and ECFP (human).
Experiment [4] concerns the target BSAT1R_(309-327mut), FRET biosensor with mutant AT1R a.a. 309-327 (SMD4JM) between EYFPc and ECFP (human).
Experiment [5] addresses BSAT1R_(309-327), FRET biosensor with AT1R a.a. 309-327 (SMD4JM) between EYFPc and ECFP (human). The source holds these as a separate data set.
Experiment [6] addresses BSAT1R_(215-232), FRET biosensor with AT1R a.a. 215-232 (part of SMD3) between EYFPc and ECFP (human).
The target in experiment [7] is BSAT1R_(125-141), FRET biosensor with AT1R a.a. 125-141 (SMD2) between EYFPc and ECFP (human).
Experiment [8] addresses BSAT1R_(215-242mut), FRET biosensor with mutant AT1R a.a. 215-242 (SMD3) between EYFPc and ECFP (human).

BSAT1R_(215-242), FRET biosensor with AT1R a.a. 215-242 (entire SMD3) between EYFPc and ECFP (human), sequence (P30556 215-242): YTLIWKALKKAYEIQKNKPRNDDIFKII

On to “Calmodulin (from UniProt P0DP23 1-149) (natural protein)”, for which the EC50(Ca2+) of the interaction, species Sp2 in experiment [1] stood at 3180 nM; in experiment [5], 3170 nM. Further, the EC50(Ca2+) of the interaction in experiment [2] amounted to 17600 nM; in experiment [3], 150 nM; in experiment [6], 300 nM; in experiment [7] it was 4100 nM; in experiment [8], 1490 nM. Further, in experiment [4], the EC50(Ca2+) of the interaction, species Sp1mut is 770 nM. In experiment [4], the EC50(Ca2+) of the interaction, species Sp2mut came out at 9600 nM. Also, the EC50(Ca2+) of the interaction, species Sp1 in experiment [5] is 310 nM.
